Source: patent publication US9340588B2, “Peptide secreted by Lactobacillus plantarum with immunomodulating function” (Imperial Innovations Limited, priority 2011, dated 2016)

Experiments:
[1] = test system: enriched dendritic cells from human blood (LDCs); test: Surface marker expression on blood-enriched dendritic cells (LDCs), flow cytometry; assay type: cell-based; conditions: for activation molecule CD83 on DCs / co-stimulating molecule CD40 on DCs / induction of MHC type II molecules (HLA-DR) on DCs: ST peptide 0.1-10 μg/mL or LPS 100 ng/mL, FIG. 5 panel B
Text: (§1) The dendritic cells were obtained from healthy patients who had neither autoimmune diseases, nor inflammatory diseases nor allergies nor malignant tumors. These subjects had given their written consent for their blood to be used for scientific purposes. The peripheral blood mononuclear cells (PBMCs) were isolated by differential centrifugation in Ficoll-Paque Plus (Amersham Biosciences, Chalfont St. Giles, UK). The cellular fraction LDC (low-density cells) was obtained by overnight centrifugation in NycoPrepe™ solution. The cells present in this LDC fraction were HLA-DR positive in 98-100% of cases, with morphological characteristics typical of the DCs (Ng, et al. (2009). A novel population of human CD56+ human leukocyte antigen D-related (HLA-DR+) colonic lamina propria cells is associated with inflammation in ulcerative colitis. Clin. Exp. Immuno1.158, 205-218).
(§2) Half a million LDCs per milliliter were cultured in complete medium (Dutch modified RPMI 1640 (Sigma-Aldrich, Dorset, UK) containing 100 U/mL penicillin/streptomycin, 2 mM L-glutamine, […] gentamicin (Sigma-Aldrich) and fetal bovine serum at 10% (v/v) (TCS cellworks, Buckingham, UK)). These cultures were carried out in the presence of the ST peptide identified as SEQ ID NO: 1 purified at concentrations of 10 μg/mL, 1 μg/mL and 0.1 μg/mL, and of LPS (100 ng/mL) (Sigma-Aldrich, St. Louis, USA) as positive control. The results were compared with parallel cultures without ST peptide identified as SEQ ID NO: 1 nor added LPS, acting as negative controls.
For the various experiments, labeling of the cells with the various antibodies (Table 1) was carried out in PBS supplemented with 1 mM EDTA and sodium azide at 0.02% (w/v) (FACS buffer). Labeling was carried out for 20 minutes in ice, in the dark. The cells were then washed with FACS buffer and were fixed with paraformaldehyde at 1% (v/v) in saline solution, and stored at 4° C. until acquisition of data in the flow cytometer. The negative controls used were isotype-matched antibodies without specificity, labeled with the same fluorochrome, which were obtained from the same company (isotype controls).
(§3) The flow cytometry data were obtained in a FACSCalibur cytometer (BD Biosciences), and the data were analyzed with the WinList 5.0 software (Verity, Me., US). The proportion of samples positive for a particular marker was determined relative to isotype controls. For quantification by histograms, an analysis was performed with the WinList software, in which the histogram of isotype staining was subtracted from the histogram of specific staining using normalized superenhanced Dmax (SED) substraction (Bagwell, C. B. (2005). Hyperlog—a flexible log-like transform for negative, zero, and positive valued data. Cytometry. 64, 34-42).

[2] = test system: enriched dendritic cells from human blood (LDCs); test: Intracellular cytokine production in blood-enriched dendritic cells (LDCs), monensin 4 h, flow cytometry; assay type: cell-based; conditions: ST peptide 0.1-10 μg/mL, 4 h monensin window, FIG. 6
Text: as §1
as §2, with “The results were compared with parallel cultures without ST peptide identified as SEQ ID NO: 1 nor added LPS, acting as negative controls.” left out
as §3
The DCs were cultured for 4 hours in the presence/absence of monensin. […] This protocol has been extensively validated by our colleagues (Hart et al., (2005) Characteristics of intestinal dendritic cells in inflammatory bowel diseases. Gastroenterology. 129, 50-65) and makes it possible to quantify changes in the natural production of cytokines by the DCs in the absence of external stimuli such as PMA and/or ionomycin. Using this approach, the intracellular content of each cytokine is not determined. Instead, the changes induced in the production of cytokines in a temporal window of 4 hours (incubation time with monensin) are determined independently of the initial content of cytokines.

[3] = test system: dendritic cells from colon mucosa biopsies (intestinal DC); test: Intracellular cytokine production in dendritic cells from colon mucosa biopsies; assay type: cell-based, human
Procedure: The DCs were cultured for 4 hours in the presence/absence of monensin. Then they were stained for the surface markers as described above. Next they were fixed with LeucopermA, and permeabilized with LeucopermB before adding the intracellular staining antibodies. After incubation, the DCs were washed in FACS buffer, were fixed and were acquired as described above. The analysis was performed by the SED substraction detailed above, where the histogram of each cytokine of the DCs that had not been incubated with monensin were subtracted from the histogram of each cytokine of the DCs that had been incubated in the […] of monensin. This protocol has been extensively validated by our colleagues (Hart et al., (2005) Characteristics of intestinal dendritic cells in inflammatory bowel diseases. Gastroenterology. 129, 50-65) and makes it possible to quantify changes in the natural production of cytokines by the DCs in the absence of external stimuli such as PMA and/or ionomycin. Using this approach, the intracellular content of each cytokine is not determined. Instead, the changes induced in the production of cytokines in a temporal window of 4 hours (incubation time with monensin) are determined independently of the initial content of cytokines.
Biopsies from the colon were obtained from three healthy patients, who had given their written consent to participate in this study (one woman and two men, age range 30-58 years). These patients had normal intestines, both macroscopically and histologically, and had been examined after reporting changes in intestinal transit or rectal bleeding. Once obtained, the biopsies were collected in complete medium cooled to 4° C. and were processed before the first hour counting from when they were obtained. The biopsies were incubated in Hanks's balanced salt solution (HBSS) (Gibco BRL, Paisley, Scotland, UK) containing 1 mM dithiothreitol (DTT) (Sigma-Aldrich) for 20 minutes. Next, they were incubated in a 1 mM solution of ethylenediaminetetraacetic acid (EDTA) in order to remove both the epithelial cells and the layer of mucus and its associated bacteria. […] The cellular suspensions of mononuclear cells of the lamina propria (200000 cells/mL) were incubated for 4 hours in the presence of the ST peptide identified as SEQ ID NO: 1 purified (10 μg/mL) and in the presence/absence, in its turn, of monensin, with their corresponding negative controls. The DCs of the lamina propria were identified by flow cytometry from the presence of the markers HLA-DR+ and CD3-CD14-CD16-CD19-CD34- (Hart et al. (2005) Characteristics of intestinal dendritic cells in inflammatory bowel diseases. Gastroenterology, 129, 50-65).
The remaining procedures followed in this example were the same as in section 1 of example 1.

[4] = test system: T lymphocytes stimulated by enriched dendritic cells from blood (LDC); test: T lymphocytes stimulated with blood LDCs conditioned with ST peptide: homing markers and cytokines; assay type: cell-based, human
Procedure: (§4) The T lymphocytes were obtained from peripheral blood mononuclear cells (PBMCs). The PBMCs, obtained from freshly drawn blood as described in example 1, were resuspended in MiniMACs buffer (PBS supplemented with bovine serum albumin 0.5% (w/v) and EDTA 2 mM). This suspension was enriched with T cells by removing the CD14 positive, CD19 positive and HLA-DR positive cells with immuno-magnetized beads (Miltenyi Biotech, Bisley, UK) following the manufacturer's instructions. A percentage of T cells of 94.91%±1.06 (mean±standard deviation) was obtained as the mean value of all the extractions/enrichments.
(§5) The T cells were labeled with 5-carboxyfluorescein diacetate succinimidyl ester (CFSE, Invitrogen Ltd, UK) according to the manufacturer's instructions. The T cells thus labeled (4×10^5 cells per well) were incubated for 5 days with DCs at 0, 1, 2 or 3% in microtiter plates with U-shaped bottom. The proliferating T cells were identified and quantified by flow cytometry as those that contained a small amount of CFSE (CFSE^low) (FIG. 8).
The remaining flow cytometry protocols were carried out as described in section 1 of example 1.

[5] = test system: T lymphocytes stimulated by enriched dendritic cells from colon biopsies (gut DC); test: T lymphocytes stimulated with intestinal mucosa DCs conditioned with ST peptide: homing markers and cytokines; assay type: cell-based, human; conditions: T cells stimulated with gut DCs pulsed with ST peptide, vs basal gut DC
Procedure: as §4, §5
This example is the same as the preceding example, except in this case DCs isolated from intestinal mucosa were used.

[6] = ST peptide 0.1, 1 or 10 μg/mL, FIG. 5
[7] = colon biopsies of healthy patients, ST peptide 10 μg/mL, 4 h, FIG. 7
[8] = single donor with abnormal IL-12 production, FIG. 14
[9] = T cells co-incubated with LDCs pre-incubated with ST peptide, FIGS. 10 and 11
[10] = T cells incubated 5 days with LDCs pre-incubated with ST peptide, FIG. 9

## lipopolysaccharide [LPS, reference compound]
[1]
  activation molecule CD83 on DCs: did induce overexpression
  co-stimulating molecule CD40 on DCs: did induce overexpression
  induction of MHC type II molecules (HLA-DR) on DCs: did induce overexpression

B1: ST peptide: Peptide of 73 amino acids rich in serine and threonine, derived from protein D1 secreted by Lactobacillus plantarum; SEQ ID NO: 1 (protein, listed as Lactobacillus plantarum)
chain: GEVDGDSTTTTSTSTQTTQQTTTTQSSAQTSQTQAQPSQASQTQSSQTQTSKPAAQTTQTSSSTSNYHHHHHH
modifications: (1)..(73) ST peptide sequence
[1]; [6]
  marker of migration to intestinal mucosa integrin β7 on DCs: did not produce changes
  marker of migration to skin CLA on DCs: did not produce changes
[1]
  activation molecule CD83 on DCs: Nor did the peptide produce changes
  co-stimulating molecule CD40 on DCs: Nor did the peptide produce changes
  induction of MHC type II molecules (HLA-DR) on DCs: Nor did the peptide produce changes
[2]
  production of intracellular TGFβ in LDCs: did not affect
  synthesis of IL-6 in LDCs: reduction in the synthesis
  synthesis of IL-10 in LDCs: increase in the synthesis
  synthesis of IL-12 in LDCs: reduction in the synthesis
[3]; [7]
  production of IL-10 in intestinal DCs: increase in the production
  production of IL-12 in intestinal DCs: absence of any increase in the production
[3]; [8]
  production of IL-10 in colon mucosa DCs of a donor with unusually high IL-12: increasing the production
  production of IL-12 in colon mucosa DCs of a donor with unusually high IL-12: completely cancelled the production
[4]; [9]
  production of IFNγ in T cells: decreased
  production of IL-17 in T cells: decreased
[4]; [10]
  CLA (marker of migration to skin) in T lymphocytes: increased considerably
  integrin β7 (marker of migration to intestinal mucosa) in T lymphocytes: decrease
[5]; FIG. 12
  production of IL-10 in T cells: even greater increase in the production
  production of TGFβ in T cells: even greater increase
[5]; FIG. 13
  lymphocytes expressing the marker of migration to skin (CLA): greater number of lymphocytes
